Test results: US20230012273A1 (Boehringer Ingelheim, published 2023)
One block for each binder: values may come before it.

How the values were obtained:
[1] = molecular target: T1, full-length human SIRPγ (NP_061026.2) on cells (human, UniProt Q9P1W8 29-387); assay: flow cytometry, CHO cells; CHO cells expressing hSIRPγ; n = 1
T1 construct: also called CHO-hSIRPγ; γ WT
Method: Antibody binding to cells expressing human SIRPγ(NP_061026.2) is evaluated by flow cytometry. SIRPγ-expressing CHO cells are blocked with donkey IgG and incubated on ice with increasing concentrations of antibody for 60 minutes, washed and stained with AF647-conjugated donkey F(ab′)₂ anti-human IgG secondary reagent. Cells are washed, fixed, and analyzed by flow cytometry. Median fluorescent intensity is determined and used as a measure of antibody binding.

[2] = molecular target: T2, cynomolgus SIRPβ1 (XP_005568598) extracellular domain + His-tag (cynomolgus monkey); assay: SPR
T2 construct: SPR analyte; also called Cyno SIRPβ1 XP_005568598; cynoSIRPβ1; not shown: His-tag
T2 chain: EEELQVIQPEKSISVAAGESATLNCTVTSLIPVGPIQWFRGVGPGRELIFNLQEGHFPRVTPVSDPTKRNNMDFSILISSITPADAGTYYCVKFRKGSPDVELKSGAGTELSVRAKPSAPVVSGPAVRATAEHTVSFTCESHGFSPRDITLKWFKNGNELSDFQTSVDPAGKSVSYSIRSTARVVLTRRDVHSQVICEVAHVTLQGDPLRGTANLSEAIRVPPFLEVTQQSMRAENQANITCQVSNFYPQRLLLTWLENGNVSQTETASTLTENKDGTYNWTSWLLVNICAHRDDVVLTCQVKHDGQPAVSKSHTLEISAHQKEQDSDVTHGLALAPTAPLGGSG
Method in brief: (§1)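 In HBS-EP+ (1×), captured antibodies are exposed to a twofold concentration series of SIRP extracellular domain carrying a His tag, using 300 s contact at 30 μl/min and a 600 s dissociation window.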

[3] = molecular target: T3, full-length human SIRPαV2 (CAA71403.1) on cells (human, UniProt P78324 31-504); assay: flow cytometry, competition with CD47 tetramer, CHO-K1 cells; * inhibition plateaus at <100%
T3 construct: one molecule for CHO-K1 and Expi-CHO transfectants (CAA71403.1) and for endogenous V2 on THP-1 cells and on CD14+ monocytes of V2/V2 donors; also called CHO-hSIRPαV2; αV2 WT
Method: Cells are washed, fixed, and analyzed by flow cytometry. Median fluorescent intensity is determined and used as a measure of CD47 binding.

[4] = molecular target: T4, full-length human SIRPβ1 (NP_006056.2) on cells (human, UniProt O00241 30-398); assay: flow cytometry, U937 SIRPα-KO cells expressing full-length human SIRPβ1
T4 construct: also called β1 WT
Method: Antibody binding to cells expressing full-length human SIRPβ1 (NP_006056.2) and SIRPβL (NP_001129316.1) is evaluated by flow cytometry. SIRPβ1- or SIRPβL-expressing U937^{SIRPα KO} cells are blocked with donkey IgG and incubated on ice with increasing concentrations of antibodies for 60 minutes, washed and stained with AF647-conjugated donkey F(ab′)₂ anti-human IgG secondary reagent. Cells are washed, fixed, and analyzed by flow cytometry. Median fluorescent intensity is determined and used as a measure of antibody binding.

[5] = molecular target: T1, full-length human SIRPγ (NP_061026.2) …; assay: flow cytometry, Expi-CHO cells expressing full-length wild-type human SIRPγ
Method: […] These cells are blocked with donkey IgG and incubated on ice with increasing concentrations of antibodies for 60 minutes, washed and stained with AF647-conjugated donkey F(ab′)₂ anti-human IgG antibodies. Stained cells are washed, fixed, and analyzed by flow cytometry. Median fluorescent intensity is determined and used as a measure of antibody binding.

[6] = molecular target: T5, human SIRPβ1 extracellular domain + His-tag (NP_006056.2) (human, UniProt O00241 30-371); assay: SPR, Ab captured, ECD-His analyte
T5 construct: also called hSIRPβ1; HuSIRPβ1
Method in brief: as §1

[7] = molecular target: T6, cynomolgus SIRPβ1v3 extracellular domain + His-tag (XP_005568593) (cynomolgus monkey); assay: SPR, Ab captured, ECD-His analyte
T6 construct: also called Cyno SIRPβ1v3; cynoSIRPβ1v3
T6 chain: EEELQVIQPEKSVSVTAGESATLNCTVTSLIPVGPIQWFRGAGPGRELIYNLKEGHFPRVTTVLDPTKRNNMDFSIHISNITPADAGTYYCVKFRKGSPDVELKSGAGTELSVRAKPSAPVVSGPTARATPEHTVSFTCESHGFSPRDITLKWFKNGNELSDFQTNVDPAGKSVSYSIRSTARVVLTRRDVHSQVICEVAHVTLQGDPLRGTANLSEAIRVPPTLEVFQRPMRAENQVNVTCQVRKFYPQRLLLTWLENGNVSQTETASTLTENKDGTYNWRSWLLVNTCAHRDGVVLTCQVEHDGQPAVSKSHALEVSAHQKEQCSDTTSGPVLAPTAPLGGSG
Method in brief: as §1

[8] = molecular target: T7, full-length human SIRPγ (NP_061026.2) on cells (human, UniProt Q9P1W8 29-387); assay: flow cytometry, primary human CD3+ T cells
T7 construct: on CHO and Expi-CHO cells; endogenous on primary human CD3+ T cells; also called γ WT
Method in brief: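 Binding was read as median fluorescence intensity on the CD3+ gate after titrated antibody was applied to donkey-IgG-blocked human PBMCs. Incubation was 60 min on ice, followed by staining with an AF647-labelled anti-human IgG F(ab′)₂ secondary and fixation before flow analysis.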

B2: Antibody E (antibody, human IgG1, kappa, L234A L235A)
heavy: not shown
light: DIVMTQSPLSLPVTPGEPASISCKSSQSLLYSNGYNYLDWYLQRPGQSPQLLIYLGSNRASGVPDRFSGSGSGTDFTLKISRVEAEDVGVFYCMQALQTPLTFGGGTKVEIKRTVAAPSVFIFPPSDEQLKSGTASVVCLLNNFYPREAKVQWKVDNALQSGNSQESVTEQDSKDSTYSLSSTLTLSKADYEKHKVYACEVTHQGLSSPVTKSFNRGEC
- binding result [2]: no binding (tested: 1000 nM)
- IC50 [3]: 0.7 nM

B5: Antibody A (antibody, human IgG1, kappa, L234A L235A)
heavy: not shown
light: DIQMTQSPSSLSASVGDRVTITCRASQDINNYLAWFQQKPGKAPKSLIYTASSLHSGVPSKFSGSGSGTDFTLTISSLQPEDFATYYCQQYVSYPYTFGQGTKLEIKRTVAAPSVFIFPPSDEQLKSGTASVVCLLNNFYPREAKVQWKVDNALQSGNSQESVTEQDSKDSTYSLSSTLTLSKADYEKHKVYACEVTHQGLSSPVTKSFNRGEC
- Kd [6]: 78.2 nM
- Kd [7]: 201 nM

B6: Antibody A10 (antibody, human IgG1, kappa, L234A L235A)
heavy: not shown
light: DIQMTQSPSSLSASVGDRVTITCRASQDINNYLAWFQQKPGKAPKSLIYTASSLHSGVPSKFSGSGSGTDFTLTISSLQPEDFATYYCQQYVSYPYTFGQGTKLEIKRTVAAPSVFIFPPSDEQLKSGTASVVCLLNNFYPREAKVQWKVDNALQSGNSQESVTEQDSKDSTYSLSSTLTLSKADYEKHKVYACEVTHQGLSSPVTKSFNRGEC
- binding result [8]: no binding

Now from value to binder:

- EC50 [1]: 11.8 nM
B1: Antibody B (antibody, human IgG1, kappa, L234A L235A, V domains shown)
VH: QVQLVQSGAEVKKPGASVKVSCKASGYTFTGNYMHWVRQAPGQGLEWMGWINPNSGGTNYAQKFQGRVTMTRDTSISTAYMELSRLRSDDTAVYYCVSGSGWYENYYYYGMDVWGQGTTVTVSS
VL: DIQMTQSPSSVSASVGDRVTITCRASQGISSWLAWYQQKPGKAPKLLIYAESSLQSGVPSRFSGSGSGTDFTLTISSLQPEDFATYYCQQANSFPLTFGGGTKVEIKR

- binding result [2]: no binding (tested: 1000 nM)
- binding result [4]: no binding (tested: about 200 nM)
- binding result [5]: no binding (tested: about 67 nM)
B3: Antibody E22 (antibody, human IgG1, kappa, L234A L235A, V domains shown)
VH: QVQLQESGPGLVKPSETLSLTCTVSGGSIRDYYWSWIRQPPGKGLEWIGFIYYNGRTFYQSSLKSRVTISLDTSKNQFSLKMTSVTAADTAVYYCARVRAYSGIGLDGTDVWGQGTTVTVSS
VL: DIVMTQSPLSLPVTPGEPASISCRSSQSLLYSTGYTYLDWYLQRPGQSPQLLIYGGSSRASGVPDRFSGSGSGTDFTLKISRVEAEDVGVFYCGQALQTPLTFGQGTKVEIKR

- binding result [5]: no binding (tested: about 67 nM)
B4: Antibody A10 (antibody, human IgG1, kappa, L234A L235A)
heavy: not shown
light: DIQMTQSPSSLSASVGDRVTITCRASQDINNYLAWFQQKPGKAPKSLIYTASSLHSGVPSKFSGSGSGTDFTLTISSLQPEDFATYYCQQYVSYPYTFGQGTKLEIKRTVAAPSVFIFPPSDEQLKSGTASVVCLLNNFYPREAKVQWKVDNALQSGNSQESVTEQDSKDSTYSLSSTLTLSKADYEKHKVYACEVTHQGLSSPVTKSFNRGEC
